Assay results as given in publication PMC10511561, “Synergism between CMG helicase and leading strand DNA polymerase at replication fork” (Nature Communications, 2023).
Each block holds one binder with its values, some of them ahead of it.

Legend:
Experiment in all cases: cryo-EM structure; replisome assembled at room temperature from 0.7 uM CMG, forked DNA and ATPγS, then 1.5 molar excess of Polε, Ctf4, Tof1-Csm3; 100 mM KCl, 25 mM HEPES pH 7.6, 4 mM MgCl2, 4 mM ATPγS; 10-30% glycerol gradient with glutaraldehyde fixation; States I-VI by 3D classification
Details in all cases: both partners purified
[1] = molecular target: T1, Pol2 (subunit of Polε in the replisome) (yeast, UniProt P21951 1-2222)
T1 construct: Pol2, yeast, catalytic subunit of Polε; Chain of m2 as it stands in the replisome structure; the catalytic NTD is flexible and not resolved; also called Pol2-CTD; Pol2-ZF2; source: yeast strain yAJ2, purified as part of Polε (calmodulin resin, TEV elution, Mono Q, Superose 6); not shown: CBP, N-terminal, cleaved
T1 sequence (P21951 whole entry): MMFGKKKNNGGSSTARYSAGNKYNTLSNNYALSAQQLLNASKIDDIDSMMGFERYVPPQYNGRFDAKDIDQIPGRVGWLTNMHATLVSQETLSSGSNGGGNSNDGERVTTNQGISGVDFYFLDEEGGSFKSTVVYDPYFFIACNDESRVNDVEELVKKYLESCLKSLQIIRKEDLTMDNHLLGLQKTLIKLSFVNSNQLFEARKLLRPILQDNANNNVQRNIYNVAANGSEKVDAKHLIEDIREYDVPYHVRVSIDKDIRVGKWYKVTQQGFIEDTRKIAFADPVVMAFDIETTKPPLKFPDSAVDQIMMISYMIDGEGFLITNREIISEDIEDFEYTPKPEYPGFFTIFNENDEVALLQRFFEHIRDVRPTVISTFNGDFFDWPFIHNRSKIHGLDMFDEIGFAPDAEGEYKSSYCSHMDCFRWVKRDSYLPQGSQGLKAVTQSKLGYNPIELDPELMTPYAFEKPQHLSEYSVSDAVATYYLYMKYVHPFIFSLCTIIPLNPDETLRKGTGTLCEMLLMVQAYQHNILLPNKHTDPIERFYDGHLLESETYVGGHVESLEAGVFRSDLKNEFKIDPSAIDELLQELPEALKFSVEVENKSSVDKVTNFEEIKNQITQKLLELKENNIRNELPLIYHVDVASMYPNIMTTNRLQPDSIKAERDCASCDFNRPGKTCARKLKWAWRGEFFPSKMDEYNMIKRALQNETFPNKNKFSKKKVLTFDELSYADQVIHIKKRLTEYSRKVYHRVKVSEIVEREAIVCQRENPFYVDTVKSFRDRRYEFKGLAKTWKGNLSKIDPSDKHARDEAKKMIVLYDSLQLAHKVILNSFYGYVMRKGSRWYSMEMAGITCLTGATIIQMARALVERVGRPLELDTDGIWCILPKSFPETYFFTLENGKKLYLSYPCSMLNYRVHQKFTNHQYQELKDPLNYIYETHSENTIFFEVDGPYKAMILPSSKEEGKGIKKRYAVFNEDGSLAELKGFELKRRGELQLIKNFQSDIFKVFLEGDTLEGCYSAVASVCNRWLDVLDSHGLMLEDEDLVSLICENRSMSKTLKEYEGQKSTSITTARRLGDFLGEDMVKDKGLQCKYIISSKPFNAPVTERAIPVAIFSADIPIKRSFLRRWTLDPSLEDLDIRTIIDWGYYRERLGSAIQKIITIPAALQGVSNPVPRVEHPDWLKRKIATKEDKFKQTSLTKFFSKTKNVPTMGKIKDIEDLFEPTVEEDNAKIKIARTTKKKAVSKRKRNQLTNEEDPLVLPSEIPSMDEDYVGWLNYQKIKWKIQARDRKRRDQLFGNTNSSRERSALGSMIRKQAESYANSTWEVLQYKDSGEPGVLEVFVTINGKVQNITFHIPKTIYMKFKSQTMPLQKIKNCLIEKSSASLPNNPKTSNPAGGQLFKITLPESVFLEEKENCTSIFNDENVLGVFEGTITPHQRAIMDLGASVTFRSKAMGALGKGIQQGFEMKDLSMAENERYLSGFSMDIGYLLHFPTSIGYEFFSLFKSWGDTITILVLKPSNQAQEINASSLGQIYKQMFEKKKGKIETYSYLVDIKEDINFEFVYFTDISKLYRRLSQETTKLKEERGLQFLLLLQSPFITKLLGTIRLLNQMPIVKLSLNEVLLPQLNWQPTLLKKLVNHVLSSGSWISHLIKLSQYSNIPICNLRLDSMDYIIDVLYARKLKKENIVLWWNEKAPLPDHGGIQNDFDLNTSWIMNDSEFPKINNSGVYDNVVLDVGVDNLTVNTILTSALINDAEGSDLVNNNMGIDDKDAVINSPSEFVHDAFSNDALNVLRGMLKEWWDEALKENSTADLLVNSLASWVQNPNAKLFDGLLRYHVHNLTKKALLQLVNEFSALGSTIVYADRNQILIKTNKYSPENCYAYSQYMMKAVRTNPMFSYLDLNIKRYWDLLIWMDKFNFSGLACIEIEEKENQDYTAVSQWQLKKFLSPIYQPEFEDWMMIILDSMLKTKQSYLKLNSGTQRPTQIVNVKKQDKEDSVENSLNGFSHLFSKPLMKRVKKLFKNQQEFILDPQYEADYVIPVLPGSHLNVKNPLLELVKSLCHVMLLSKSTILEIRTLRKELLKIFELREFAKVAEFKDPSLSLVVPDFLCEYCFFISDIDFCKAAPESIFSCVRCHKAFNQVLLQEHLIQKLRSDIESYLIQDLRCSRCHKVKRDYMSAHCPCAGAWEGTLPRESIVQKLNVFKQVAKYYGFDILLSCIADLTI

Tof1-Csm3 = molecular target: T2, Tof1-Csm3 (yeast, UniProt P53840 1-1238; Q04659 1-317)
T2 construct: Tof1, yeast; Csm3, yeast; Purified beforehand as one complex; also called Tof1 and Csm3; components of the fork protection complex (FPC); source: yeast strain yAE48, galactose-induced, purified (calmodulin resin, TEV elution, Mono Q, Superose 6); not shown: CBP, N-terminal, cleaved
T2 sequence (P53840 whole entry, chain 1 of 2): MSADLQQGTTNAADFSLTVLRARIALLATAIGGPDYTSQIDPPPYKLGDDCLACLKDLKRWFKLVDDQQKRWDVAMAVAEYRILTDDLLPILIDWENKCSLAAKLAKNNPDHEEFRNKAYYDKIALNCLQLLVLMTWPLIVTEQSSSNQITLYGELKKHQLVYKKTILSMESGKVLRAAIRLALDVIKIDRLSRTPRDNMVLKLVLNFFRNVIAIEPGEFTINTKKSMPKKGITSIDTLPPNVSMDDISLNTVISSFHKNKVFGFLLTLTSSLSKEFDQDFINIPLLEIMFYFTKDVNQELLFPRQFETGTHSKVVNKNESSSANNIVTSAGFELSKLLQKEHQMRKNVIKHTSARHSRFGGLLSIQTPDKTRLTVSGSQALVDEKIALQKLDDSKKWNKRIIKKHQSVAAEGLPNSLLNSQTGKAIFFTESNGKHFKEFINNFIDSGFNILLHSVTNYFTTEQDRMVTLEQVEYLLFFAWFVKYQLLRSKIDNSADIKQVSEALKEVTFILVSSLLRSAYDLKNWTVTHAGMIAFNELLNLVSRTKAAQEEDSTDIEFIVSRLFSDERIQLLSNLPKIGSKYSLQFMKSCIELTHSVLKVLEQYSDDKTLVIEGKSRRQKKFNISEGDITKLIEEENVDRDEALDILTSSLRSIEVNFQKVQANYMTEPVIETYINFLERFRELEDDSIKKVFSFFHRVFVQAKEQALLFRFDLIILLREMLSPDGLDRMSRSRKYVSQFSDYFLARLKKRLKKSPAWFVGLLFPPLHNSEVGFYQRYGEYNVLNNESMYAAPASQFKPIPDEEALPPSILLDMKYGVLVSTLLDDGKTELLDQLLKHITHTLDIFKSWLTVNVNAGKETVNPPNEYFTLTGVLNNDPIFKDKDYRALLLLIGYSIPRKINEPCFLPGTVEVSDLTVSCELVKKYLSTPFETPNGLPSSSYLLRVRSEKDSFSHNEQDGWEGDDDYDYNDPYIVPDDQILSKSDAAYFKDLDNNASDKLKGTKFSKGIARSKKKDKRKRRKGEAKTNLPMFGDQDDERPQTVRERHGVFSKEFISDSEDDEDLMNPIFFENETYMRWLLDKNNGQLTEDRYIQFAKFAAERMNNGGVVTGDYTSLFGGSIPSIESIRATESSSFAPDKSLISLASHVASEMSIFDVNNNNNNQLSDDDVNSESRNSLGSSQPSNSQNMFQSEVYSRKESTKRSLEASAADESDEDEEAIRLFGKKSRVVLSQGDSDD
T2 sequence (Q04659 whole entry, chain 2 of 2): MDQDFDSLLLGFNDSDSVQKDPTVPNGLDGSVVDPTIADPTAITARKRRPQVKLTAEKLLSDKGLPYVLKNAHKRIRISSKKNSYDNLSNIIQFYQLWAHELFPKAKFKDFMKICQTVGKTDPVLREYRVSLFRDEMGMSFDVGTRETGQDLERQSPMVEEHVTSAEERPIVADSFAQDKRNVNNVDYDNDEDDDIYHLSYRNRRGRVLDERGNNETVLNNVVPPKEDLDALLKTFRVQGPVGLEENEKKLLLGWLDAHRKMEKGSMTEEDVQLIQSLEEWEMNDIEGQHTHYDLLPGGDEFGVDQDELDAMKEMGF

[2] = molecular target: T3, Dpb2 (subunit of Polε in the replisome) (yeast, UniProt P24482 1-689)
T3 construct: Dpb2, yeast, subunit of Polε; NTD 12-98, linker 99-156, PDE domain 157-689 as printed; Chain of m2 as it stands in the replisome structure; also called Dpb2-NTD; Dpb2-OB; source: yeast strain yAJ2, purified as part of Polε (calmodulin resin, TEV elution, Mono Q, Superose 6)
T3 sequence: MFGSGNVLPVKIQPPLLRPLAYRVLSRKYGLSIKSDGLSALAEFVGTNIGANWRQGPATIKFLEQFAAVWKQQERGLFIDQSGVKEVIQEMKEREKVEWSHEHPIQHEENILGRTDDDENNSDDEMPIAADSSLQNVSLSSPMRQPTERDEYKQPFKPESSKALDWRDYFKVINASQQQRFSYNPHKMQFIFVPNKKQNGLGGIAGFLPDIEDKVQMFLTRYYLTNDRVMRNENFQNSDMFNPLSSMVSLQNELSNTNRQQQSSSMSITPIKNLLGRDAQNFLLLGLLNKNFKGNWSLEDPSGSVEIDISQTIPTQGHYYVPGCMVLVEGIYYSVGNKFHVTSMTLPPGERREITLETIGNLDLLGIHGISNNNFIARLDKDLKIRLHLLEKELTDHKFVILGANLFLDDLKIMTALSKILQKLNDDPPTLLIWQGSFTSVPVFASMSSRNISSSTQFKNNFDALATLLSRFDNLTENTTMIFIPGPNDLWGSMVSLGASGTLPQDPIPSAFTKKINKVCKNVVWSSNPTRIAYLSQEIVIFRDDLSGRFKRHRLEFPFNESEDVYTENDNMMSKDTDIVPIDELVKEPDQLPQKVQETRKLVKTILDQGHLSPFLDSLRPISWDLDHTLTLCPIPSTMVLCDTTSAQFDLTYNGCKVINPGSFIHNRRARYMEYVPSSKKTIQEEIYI

B1: Mcm2 (subunit of CMG) (natural protein, yeast)
chain: MSDNRRRRREEDDSDSENELPPSSPQQHFRGGMNPVSSPIGSPDMINPEGDDNEVDDVPDIDEVEEQMNEVDLMDDNMYEDYAADHNRDRYDPDQVDDREQQELSLSERRRIDAQLNERDRLLRNVAYIDDEDEEQEGAAQLDEMGLPVQRRRRRRQYEDLENSDDDLLSDMDIDPLREELTLESLSNVKANSYSEWITQPNVSRTIARELKSFLLEYTDETGRSVYGARIRTLGEMNSESLEVNYRHLAESKAILALFLAKCPEEMLKIFDLVAMEATELHYPDYARIHSEIHVRISDFPTIYSLRELRESNLSSLVRVTGVVTRRTGVFPQLKYVKFNCLKCGSILGPFFQDSNEEIRISFCTNCKSKGPFRVNGEKTVYRNYQRVTLQEAPGTVPPGRLPRHREVILLADLVDVSKPGEEVEVTGIYKNNYDGNLNAKNGFPVFATIIEANSIKRREGNTANEGEEGLDVFSWTEEEEREFRKISRDRGIIDKIISSMAPSIYGHRDIKTAVACSLFGGVPKNVNGKHSIRGDINVLLLGDPGTAKSQILKYVEKTAHRAVFATGQGASAVGLTASVRKDPITKEWTLEGGALVLADKGVCLIDEFDKMNDQDRTSIHEAMEQQSISISKAGIVTTLQARCSIIAAANPNGGRYNSTLPLAQNVSLTEPILSRFDILCVVRDLVDEEADERLATFVVDSHVRSHPENDEDREGEELKNNGESAIEQGEDEINEQLNARQRRLQRQRKKEEEISPIPQELLMKYIHYARTKIYPKLHQMDMDKVSRVYADLRRESISTGSFPITVRHLESILRIAESFAKMRLSEFVSSYDLDRAIKVVVDSFVDAQKVSVRRQLRRSFAIYTLGH
notes: Mcm2, yeast; Chain of m1 as it stands in the replisome structure; source: yeast strain yJCZ2, purified as part of CMG (anti-FLAG M2 resin, Mono Q, Superose 6)
binding result [1]: binds

B2: Mcm5 (subunit of CMG) (natural protein, yeast)
chain: MSFDRPEIYSAPVLQGESPNDDDNTEIIKSFKNFILEFRLDSQFIYRDQLRNNILVKNYSLTVNMEHLIGYNEDIYKKLSDEPSDIIPLFETAITQVAKRISILSRAQSANNNDKDPENTSMDTDSLLLNSLPTFQLILNSNANQIPLRDLDSEHVSKIVRLSGIIISTSVLSSRATYLSIMCRNCRHTTSITINNFNSITGNTVSLPRSCLSTIESESSMANESNIGDESTKKNCGPDPYIIIHESSKFIDQQFLKLQEIPELVPVGEMPRNLTMTCDRYLTNKVIPGTRVTIVGIYSIYNSKNGAGSGRSGGGNGGSGVAIRTPYIKILGIQSDVETSSIWNSVTMFTEEEEEEFLQLSRNPKLYEILTNSIAPSIFGNEDIKKAIVCLLMGGSKKILPDGMRLRGDINVLLLGDPGTAKSQLLKFVEKVSPIAVYTSGKGSSAAGLTASVQRDPMTREFYLEGGAMVLADGGVVCIDEFDKMRDEDRVAIHEAMEQQTISIAKAGITTVLNSRTSVLAAANPIYGRYDDLKSPGDNIDFQTTILSRFDMIFIVKDDHNEERDISIANHVINIHTGNANAMQNQQEENGSEISIEKMKRYITYCRLKCAPRLSPQAAEKLSSNFVTIRKQLLINELESTERSSIPITIRQLEAIIRITESLAKLELSPIAQERHVDEAIRLFQASTMDAASQDPIGGLNQASGTSLSEIRRFEQELKRRLPIGWSTSYQTLRREFVDTHRFSQLALDKALYALEKHETIQLRHQGQNIYRSGV
notes: Mcm5, yeast; Chain of m1 as it stands in the replisome structure; also called Mcm5-CTD; Mcm5-WHD; source: yeast strain yJCZ2, purified as part of CMG (anti-FLAG M2 resin, Mono Q, Superose 6)
binding result [1]: binds

B3: Mcm6 (subunit of CMG) (natural protein, yeast)
chain: MSSPFPADTPSSNRPSNSSPPPSSIGAGFGSSSGLDSQIGSRLHFPSSSQPHVSNSQTGPFVNDSTQFSSQRLQTDGSATNDMEGNEPARSFKSRALNHVKKVDDVTGEKVREAFEQFLEDFSVQSTDTGEVEKVYRAQIEFMKIYDLNTIYIDYQHLSMRENGALAMAISEQYYRFLPFLQKGLRRVVRKYAPELLNTSDSLKRSEGDEGQADEDEQQDDDMNGSSLPRDSGSSAAPGNGTSAMATRSITTSTSPEQTERVFQISFFNLPTVHRIRDIRSEKIGSLLSISGTVTRTSEVRPELYKASFTCDMCRAIVDNVEQSFKYTEPTFCPNPSCENRAFWTLNVTRSRFLDWQKVRIQENANEIPTGSMPRTLDVILRGDSVERAKPGDRCKFTGVEIVVPDVTQLGLPGVKPSSTLDTRGISKTTEGLNSGVTGLRSLGVRDLTYKISFLACHVISIGSNIGASSPDANSNNRETELQMAANLQANNVYQDNERDQEVFLNSLSSDEINELKEMVKDEHIYDKLVRSIAPAVFGHEAVKKGILLQMLGGVHKSTVEGIKLRGDINICVVGDPSTSKSQFLKYVVGFAPRSVYTSGKASSAAGLTAAVVRDEEGGDYTIEAGALMLADNGICCIDEFDKMDISDQVAIHEAMEQQTISIAKAGIHATLNARTSILAAANPVGGRYNRKLSLRGNLNMTAPIMSRFDLFFVILDDCNEKIDTELASHIVDLHMKRDEAIEPPFSAEQLRRYIKYARTFKPILTKEARSYLVEKYKELRKDDAQGFSRSSYRITVRQLESMIRLSEAIARANCVDEITPSFIAEAYDLLRQSIIRVDVDDVEMDEEFDNIESQSHAASGNNDDNDDGTGSGVITSEPPADIEEGQSEATARPGTSEKKKTTVTYDKYVSMMNMIVRKIAEVDREGAEELTAVDIVDWYLLQKENDLGSLAEYWEERRLAFKVIKRLVKDRILMEIHGTRHNLRDLENEENENNKTVYVIHPNCEVLDQLEPQDSS
notes: Mcm6, yeast; Chain of m1 as it stands in the replisome structure; source: yeast strain yJCZ2, purified as part of CMG (anti-FLAG M2 resin, Mono Q, Superose 6)
binding result (Tof1-Csm3): binds

Results, then the binder that gave them:

binding result [2]: binds
B4: Psf1 (subunit of GINS in CMG) (natural protein, yeast)
chain: MYGDLGNKLVLEAKRTKQLYARSNQDVNLPMYHEDIIRNILKEVSNLRKNTEYLKEQQQLGMLDDKVAKCQYFVTLLCMERNKRCLLAYQRLRTDILDSMAWNNNGLDLMSSITFSQQDTNNLSHQEQEYLKEYCDLITDLKSGDLVDIDLSGSLVPPSDVFIDVRVLKDAGEIQTEYGVFNLIKDSQFFVRQSDVERLIQQGYLQKI
notes: Psf1, yeast, subunit of GINS; Chain of m1 as it stands in the replisome structure; also called Psf1 B domain; Psf1-B domain; source: yeast strain yJCZ2, purified as part of CMG (anti-FLAG M2 resin, Mono Q, Superose 6)

binding result (Tof1-Csm3): binds
B5: Mcm4 (subunit of CMG) (natural protein, yeast)
chain: MSQQSSSPTKEDNNSSSPVVPNPDSVPPQLSSPALFYSSSSSQGDIYGRNNSQNLSQGEGNIRAAIGSSPLNFPSSSQRQNSDVFQSQGRQGRIRSSASASGRSRYHSDLRSDRALPTSSSSLGRNGQNRVHMRRNDIHTSDLSSPRRIVDFDTRSGVNTLDTSSSSAPPSEASEPLRIIWGTNVSIQECTTNFRNFLMSFKYKFRKILDEREEFINNTTDEELYYIKQLNEMRELGTSNLNLDARNLLAYKQTEDLYHQLLNYPQEVISIMDQTIKDCMVSLIVDNNLDYDLDEIETKFYKVRPYNVGSCKGMRELNPNDIDKLINLKGLVLRSTPVIPDMKVAFFKCNVCDHTMAVEIDRGVIQEPARCERIDCNEPNSMSLIHNRCSFADKQVIKLQETPDFVPDGQTPHSISLCVYDELVDSCRAGDRIEVTGTFRSIPIRANSRQRVLKSLYKTYVDVVHVKKVSDKRLDVDTSTIEQELMQNKVDHNEVEEVRQITDQDLAKIREVAAREDLYSLLARSIAPSIYELEDVKKGILLQLFGGTNKTFTKGGRYRGDINILLCGDPSTSKSQILQYVHKITPRGVYTSGKGSSAVGLTAYITRDVDTKQLVLESGALVLSDGGVCCIDEFDKMSDSTRSVLHEVMEQQTISIAKAGIITTLNARSSILASANPIGSRYNPNLPVTENIDLPPPLLSRFDLVYLVLDKVDEKNDRELAKHLTNLYLEDKPEHISQDDVLPVEFLTMYISYAKEHIHPIITEAAKTELVRAYVGMRKMGDDSRSDEKRITATTRQLESMIRLAEAHAKMKLKNVVELEDVQEAVRLIRSAIKDYATDPKTGKIDMNLVQTGKSVIQRKLQEDLSREIMNVLKDQASDSMSFNELIKQINEHSQDRVESSDIQEALSRLQQEDKVIVLGEGVRRSVRLNNRV
notes: Mcm4, yeast; Chain of m1 as it stands in the replisome structure; source: yeast strain yJCZ2, purified as part of CMG (anti-FLAG M2 resin, Mono Q, Superose 6)

binding result [1]: binds
B6: Cdc45 (subunit of CMG) (natural protein, yeast)
chain: MYYGISQFSEAYNKILRNSSSHSSCQLVIFVSCLNIDALCATKMLSLLFKKQLVQSQIVPIFGYSELRRHYSQLDDNINSLLLVGFGGVIDLEAFLEIDPQEYVIDTDEKSGEQSFRRDIYVLDAHRPWNLDNIFGSQIIQCFDDGTVDDTLGEQKEAYYKLLELDEESGDDELSGDENDNNGGDDEATDADEVTDEDEEDEDETISNKRGNSSIGPNDLSKRKQRKKQIHEYEGVLEEYYSQGTTVVNSISAQIYSLLSAIGETNLSNLWLNILGTTSLDIAYAQVYNRLYPLLQDEVKRLTPSSRNSVKTPDTLTLNIQPDYYLFLLRHSSLYDSFYYSNYVNAKLSLWNENGKKRLHKMFARMGIPLSTAQETWLYMDHSIKRELGIIFDKNLDRYGLQDIIRDGFVRTLGYRGSISASEFVEALTALLEVGNSTDKDSVKINNDNNDDTDGEEEEDNSAQKLTNLRKRWVSNFWLSWDALDDRKVELLNRGIQLAQDLQRAIFNTGVAILEKKLIKHLRIYRLCVLQDGPDLDLYRNPLTLLRLGNWLIECCAESEDKQLLPMVLASIDENTDTYLVAGLTPRYPRGLDTIHTKKPILNNFSMAFQQITAETDAKVRIDNFESSIIEIRREDLSPFLEKLTLSGLL
notes: Cdc45, yeast; Chain of m1 as it stands in the replisome structure; source: yeast strain yJCZ2, purified as part of CMG (anti-FLAG M2 resin, Mono Q, Superose 6)
